In data set [1] the target is ATL2 (6His-tagged cytoplasmic / soluble domain, ATL2 1–467) (Homo sapiens, UniProt Q8NHH9). Briefly: SEC dimer shift. It counts as binding. The conditions noted are these: 2 mM GMPPNP (SEC, cross-linking) or 1 mM (EM); 30 min RT.
Substrate in data set [2]: Nc1nc2c(ncn2[C@@H]2O[C@H](COP(=O)(O)OP(=O)(O)OP(=O)(O)O)[C@@H](O)[C@H]2O)c(=O)[nH]1
As to the kind of experiment: malachite green phosphate release, Lineweaver-Burk. It counts as biochemical, Homo sapiens. To be noted: 1 µM enzyme, 5, 10, 20 µM GTP, 37 °C.

Turning to `Nc1nc2c(ncn2[C@@H]2O[C@H](COP(=O)(O)OP(=O)(O)NP(=O)(O)O)[C@@H](O)[C@H]2O)c(=O)[nH]1` [GMPPNP, guanosine 5′-[β,γ-imido]triphosphate], the “SEC dimer shift (Superdex 200), BMOE cross-linking, negative-stain EM” value in data set [1] is “wild-type ATL2 formed dimers in the presence, but not in the absence, of GMPPNP”.

B1: ATL2 (6His-tagged cytoplasmic / soluble domain, ATL2 1–467) (Homo sapiens) (protein)
chain: MAEGDEAARGQQPHQGLWRRRRTSDPSAAVNHVSSTTSLGENYEDDDLVNSDEVMKKPCPVQIVLAHEDDHNFELDEEALEQILLQEHIRDLNIVVVSVAGAFRKGKSFLLDFMLRYMYNKDSQSWIGGNNEPLTGFTWRGGCERETTGIQVWNEVFVIDRPNGTKVAVLLMDTQGAFDSQSTIKDCATVFALSTMTSSVQVYNLSQNIQEDDLQHLQLFTEYGRLAMEEIYQKPFQTLMFLIRDWSYPYEHSYGLEGGKQFLEKRLQVKQNQHEELQNVRKHIHNCFSNLGCFLLPHPGLKVATNPSFDGRLKDIDEDFKRELRNLVPLLLAPENLVEKEISGSKVTCRDLVEYFKAYIKIYQGEELPHPKSMLQATAEANNLAAVAGARDTYCKSMEQVCGGDKPYIAPSDLERKHLDLKEVAIKQFRSVKKMGGDEFCRRYQDQLEAEIEETYANFIKHNDGKN
Consider B1, for which the Km (commonly the substrate concentration at which the rate is half of its maximum) in data set [2] came to 34 µM.

B2: ATL2 (6His-tagged cytoplasmic / soluble domain, ATL2 1–467) (Homo sapiens; E380R/K372E) (protein)
chain: MAEGDEAARGQQPHQGLWRRRRTSDPSAAVNHVSSTTSLGENYEDDDLVNSDEVMKKPCPVQIVLAHEDDHNFELDEEALEQILLQEHIRDLNIVVVSVAGAFRKGKSFLLDFMLRYMYNKDSQSWIGGNNEPLTGFTWRGGCERETTGIQVWNEVFVIDRPNGTKVAVLLMDTQGAFDSQSTIKDCATVFALSTMTSSVQVYNLSQNIQEDDLQHLQLFTEYGRLAMEEIYQKPFQTLMFLIRDWSYPYEHSYGLEGGKQFLEKRLQVKQNQHEELQNVRKHIHNCFSNLGCFLLPHPGLKVATNPSFDGRLKDIDEDFKRELRNLVPLLLAPENLVEKEISGSKVTCRDLVEYFKAYIKIYQGEELPHPESMLQATARANNLAAVAGARDTYCKSMEQVCGGDKPYIAPSDLERKHLDLKEVAIKQFRSVKKMGGDEFCRRYQDQLEAEIEETYANFIKHNDGKN
B2: the Km in data set [2] turned out to be 44 µM.

The values are drawn from article PMC3257528 (The Journal of Cell Biology, 2011).
